Laboratory results as given in the supplement of paper PMC9112550, “Optimization of the antimicrobial peptide Bac7 by deep mutational scanning” (BMC Biology, 2022).

These sequences were tested on Escherichia coli TOP10 (assay: shrunken log2 fold change of peptide-encoding DNA abundance (4.5 h post-induction vs induction); higher = less antimicrobial activity (less host growth inhibition)). Conditions: time post-induction: 4.5 h; library: site-saturation at positions 5, 18, 19, 20.
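Note: peptides expressed intracellularly from a pBAD plasmid library in pooled LB shake-flask culture, induced with 0.3% L-arabinose, DNA abundance read by NGS, three biological replicates, DESeq2 with apeglm shrinkage.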

Row | Sequence | shrunken log2 fold change
1 | RRIRQRPPRLPRPRPRPGYIPRP | -0.625
2 | RRIRSRPPRLPRPRPRPKMCPRP | -0.015
3 | RRIRRRPPRLPRPRPRPQLVPRP | 0.0448
4 | RRIRSRPPRLPRPRPRPQSFPRP | -0.0939
5 | RRIRPRPPRLPRPRPRPHRNPRP | -0.11
6 | RRIRHRPPRLPRPRPRPPLYPRP | -0.151
7 | RRIRMRPPRLPRPRPRPCIQPRP | -0.214
8 | RRIRYRPPRLPRPRPRPMFQPRP | -0.136
9 | RRIRCRPPRLPRPRPRPWGSPRP | -0.151
10 | RRIRPRPPRLPRPRPRPYGVPRP | -0.157
11 | RRIRFRPPRLPRPRPRPDTSPRP | -0.985
12 | RRIRYRPPRLPRPRPRPRDFPRP | -0.161
13 | RRIRTRPPRLPRPRPRPNCWPRP | 0.0359
14 | RRIRMRPPRLPRPRPRPFSNPRP | -0.175
15 | RRIRSRPPRLPRPRPRPIHGPRP | -0.159
16 | RRIRCRPPRLPRPRPRPTRMPRP | 0.0511
17 | RRIRHRPPRLPRPRPRPWRNPRP | 0.00611
18 | RRIRARPPRLPRPRPRPHEGPRP | 0.148
19 | RRIRARPPRLPRPRPRPNIKPRP | -0.14
20 | RRIRFRPPRLPRPRPRPKWDPRP | 0.117
21 | RRIRIRPPRLPRPRPRPTIYPRP | -0.865
22 | RRIRMRPPRLPRPRPRPGHDPRP | 0.0618
23 | RRIRIRPPRLPRPRPRPCITPRP | -0.0326
24 | RRIRIRPPRLPRPRPRPNGCPRP | -0.0792
25 | RRIRVRPPRLPRPRPRPAWLPRP | 0.186

Row | Sequence | shrunken log2 fold change
26 | RRIRSRPPRLPRPRPRPDGKPRP | 0.00369
27 | RRIRHRPPRLPRPRPRPRYGPRP | -0.629
28 | RRIRRRPPRLPRPRPRPYDNPRP | -0.636
29 | RRIRTRPPRLPRPRPRPMAFPRP | -0.0075
30 | RRIRQRPPRLPRPRPRPKYHPRP | -0.171
31 | RRIRQRPPRLPRPRPRPISCPRP | -0.00146
32 | RRIRVRPPRLPRPRPRPTCHPRP | -0.0606
33 | RRIRYRPPRLPRPRPRPELWPRP | 0.13
34 | RRIRERPPRLPRPRPRPPWMPRP | -0.22
35 | RRIRWRPPRLPRPRPRPVYCPRP | -0.196
36 | RRIRVRPPRLPRPRPRPPYIPRP | -0.28
37 | RRIRMRPPRLPRPRPRPVEDPRP | 0.358
38 | RRIRNRPPRLPRPRPRPSPSPRP | -0.0323
39 | RRIRPRPPRLPRPRPRPTYYPRP | -0.636
40 | RRIRARPPRLPRPRPRPNMQPRP | 0.18
41 | RRIRMRPPRLPRPRPRPIEDPRP | 0.224
42 | RRIRPRPPRLPRPRPRPIVSPRP | -0.117
43 | RRIRYRPPRLPRPRPRPCYLPRP | -0.0778
44 | RRIRQRPPRLPRPRPRPLHIPRP | -0.423
45 | RRIRWRPPRLPRPRPRPMNIPRP | -0.541
46 | RRIRQRPPRLPRPRPRPLHQPRP | -0.172
47 | RRIRQRPPRLPRPRPRPGAPPRP | 0.307
48 | RRIRNRPPRLPRPRPRPWMVPRP | 0.131
49 | RRIRVRPPRLPRPRPRPVRAPRP | 0.616
50 | RRIRTRPPRLPRPRPRPMYVPRP | 0.0319

Row | Sequence | shrunken log2 fold change
51 | RRIRWRPPRLPRPRPRPGGYPRP | 0.215
52 | RRIRHRPPRLPRPRPRPHFKPRP | -0.455
53 | RRIRHRPPRLPRPRPRPNPYPRP | -0.161
54 | RRIRNRPPRLPRPRPRPQPYPRP | -0.0389
55 | RRIRCRPPRLPRPRPRPFTWPRP | -0.188
56 | RRIRARPPRLPRPRPRPLRGPRP | 0.954
57 | RRIRNRPPRLPRPRPRPMFQPRP | -0.0465
58 | RRIRLRPPRLPRPRPRPVMHPRP | -0.16
59 | RRIRHRPPRLPRPRPRPLIKPRP | -0.721
60 | RRIRRRPPRLPRPRPRPWADPRP | -0.143
61 | RRIRSRPPRLPRPRPRPFNPPRP | -0.28
62 | RRIRSRPPRLPRPRPRPYYQPRP | -0.608
63 | RRIRWRPPRLPRPRPRPIQCPRP | -0.0122
64 | RRIRFRPPRLPRPRPRPSDMPRP | -0.11
65 | RRIRGRPPRLPRPRPRPNCMPRP | 0.196
66 | RRIRTRPPRLPRPRPRPQEEPRP | -0.0236
67 | RRIRARPPRLPRPRPRPVSAPRP | 0.455
68 | RRIRGRPPRLPRPRPRPNMCPRP | -0.0942
69 | RRIRFRPPRLPRPRPRPTYHPRP | -0.428
70 | RRIRNRPPRLPRPRPRPVGLPRP | 0.0874
71 | RRIRIRPPRLPRPRPRPDHQPRP | -0.0128
72 | RRIRHRPPRLPRPRPRPKKIPRP | -0.129
73 | RRIRDRPPRLPRPRPRPPDCPRP | 0.077
74 | RRIRTRPPRLPRPRPRPRLQPRP | 0.123
75 | RRIRYRPPRLPRPRPRPICEPRP | -0.404

Row | Sequence | shrunken log2 fold change
76 | RRIRQRPPRLPRPRPRPYKTPRP | -0.0141
77 | RRIRIRPPRLPRPRPRPNWDPRP | -0.0401
78 | RRIRERPPRLPRPRPRPCCPPRP | -0.159
79 | RRIRFRPPRLPRPRPRPMTKPRP | 0.0716
80 | RRIRARPPRLPRPRPRPIWIPRP | 0.123
81 | RRIRKRPPRLPRPRPRPNLTPRP | -0.112
82 | RRIRDRPPRLPRPRPRPRVAPRP | 0.729
83 | RRIRMRPPRLPRPRPRPGDHPRP | 0.147
84 | RRIRIRPPRLPRPRPRPVSLPRP | -0.147
85 | RRIRRRPPRLPRPRPRPDQNPRP | 0.327
86 | RRIRSRPPRLPRPRPRPKYNPRP | -0.62
87 | RRIRMRPPRLPRPRPRPYRAPRP | -0.691
88 | RRIRRRPPRLPRPRPRPAIEPRP | 0.109
89 | RRIRYRPPRLPRPRPRPDCHPRP | -0.0362
90 | RRIRKRPPRLPRPRPRPTHCPRP | 0.251
91 | RRIRPRPPRLPRPRPRPPWNPRP | 0.77
92 | RRIRLRPPRLPRPRPRPICFPRP | 0.104
93 | RRIRRRPPRLPRPRPRPCWKPRP | 0.0297
94 | RRIRTRPPRLPRPRPRPEGMPRP | 0.18
95 | RRIRDRPPRLPRPRPRPCAMPRP | 0.259
96 | RRIRYRPPRLPRPRPRPWGFPRP | -0.167
97 | RRIRWRPPRLPRPRPRPGHRPRP | 0.315
98 | RRIRLRPPRLPRPRPRPCWMPRP | -0.168
99 | RRIRGRPPRLPRPRPRPASIPRP | 0.371
100 | RRIRQRPPRLPRPRPRPWKHPRP | -0.0075

Row | Sequence | shrunken log2 fold change
101 | RRIRRRPPRLPRPRPRPYCYPRP | -0.101
102 | RRIRVRPPRLPRPRPRPRTDPRP | -0.191
103 | RRIRGRPPRLPRPRPRPKQAPRP | 0.865
104 | RRIRRRPPRLPRPRPRPIGGPRP | 0.205
105 | RRIRARPPRLPRPRPRPHMCPRP | -0.174
106 | RRIRQRPPRLPRPRPRPMYPPRP | -0.329
107 | RRIRGRPPRLPRPRPRPWVNPRP | 0.0175
108 | RRIRCRPPRLPRPRPRPMTYPRP | -0.185
109 | RRIRFRPPRLPRPRPRPQEIPRP | -0.0426
110 | RRIRHRPPRLPRPRPRPWLFPRP | -0.0716
111 | RRIRRRPPRLPRPRPRPRWDPRP | 0.457
112 | RRIRSRPPRLPRPRPRPSIYPRP | -0.00286
113 | RRIRWRPPRLPRPRPRPICHPRP | -0.0597
114 | RRIRWRPPRLPRPRPRPWIEPRP | 0.0929
115 | RRIRERPPRLPRPRPRPTEAPRP | 0.0834
116 | RRIRPRPPRLPRPRPRPCPGPRP | -0.0306
117 | RRIRNRPPRLPRPRPRPSPPPRP | -0.0562
118 | RRIRERPPRLPRPRPRPPWNPRP | -0.246
119 | RRIRDRPPRLPRPRPRPIWYPRP | -0.0481
120 | RRIRKRPPRLPRPRPRPHHCPRP | 0.0484
121 | RRIRPRPPRLPRPRPRPDTMPRP | -0.649
122 | RRIRYRPPRLPRPRPRPTSVPRP | -0.395
123 | RRIRDRPPRLPRPRPRPYQVPRP | -0.183
124 | RRIRDRPPRLPRPRPRPMPWPRP | -0.0438
125 | RRIRRRPPRLPRPRPRPMKGPRP | 0.144

Row | Sequence | shrunken log2 fold change
126 | RRIRTRPPRLPRPRPRPTWYPRP | -0.0546
127 | RRIRIRPPRLPRPRPRPAHGPRP | 0.188
128 | RRIRARPPRLPRPRPRPPHHPRP | 0.675
129 | RRIRDRPPRLPRPRPRPMWCPRP | 0.00673
130 | RRIRHRPPRLPRPRPRPHHRPRP | -0.257
131 | RRIRVRPPRLPRPRPRPSWQPRP | -0.251
132 | RRIRMRPPRLPRPRPRPIKWPRP | -0.00876
133 | RRIRNRPPRLPRPRPRPVLQPRP | -0.157
134 | RRIRVRPPRLPRPRPRPPGDPRP | 0.12
135 | RRIRFRPPRLPRPRPRPSAYPRP | -0.791
136 | RRIRERPPRLPRPRPRPEFIPRP | -0.335
137 | RRIRMRPPRLPRPRPRPLNQPRP | -0.0442
138 | RRIRWRPPRLPRPRPRPQYNPRP | -0.554
139 | RRIRQRPPRLPRPRPRPARPPRP | 0.516
140 | RRIRWRPPRLPRPRPRPTPGPRP | 0.572
141 | RRIRSRPPRLPRPRPRPVCLPRP | 0.0459
142 | RRIRTRPPRLPRPRPRPWFGPRP | 0.0864
143 | RRIRHRPPRLPRPRPRPVNLPRP | -0.0241
144 | RRIRYRPPRLPRPRPRPMCEPRP | -0.283
145 | RRIRRRPPRLPRPRPRPAITPRP | -0.0525
146 | RRIRGRPPRLPRPRPRPYEYPRP | 0.127
147 | RRIRMRPPRLPRPRPRPPHRPRP | 0.567
148 | RRIRDRPPRLPRPRPRPMVCPRP | 0.141
149 | RRIRIRPPRLPRPRPRPIEEPRP | -0.0195
150 | RRIRWRPPRLPRPRPRPVSVPRP | -0.258
